Reference: patent publication US20200276326A1

What was measured:
[1] = biological target: human CD5 on cells (MOLT-4 human T lymphoblast cells; primary human T-cells) (human) (UniProt P06127); experiment: flow cytometry on MOLT-4 cells, anti-mouse AF488 secondary, 4 C
[2] = biological target: purified human CD5 ectodomain (human) (UniProt P06127); experiment: BLI (Octet Red96), antibody on anti-human Fc biosensors, 50 nM CD5 ectodomain, 25 C
[3] = biological target: human CD5 on cells (MOLT-4 human T lymphoblast cells; primary human T-cells) (human) (UniProt P06127); experiment: flow cytometry on primary human T-cells, AF488 secondary, antibody titration at 37 C

## murine anti-CD5 antibody UCHT2 (BioLegend)
[1]
  EC50: 0.354 nM

## murine anti-CD5 antibody CRIS-1 (Novus Biologicals)
[1]
  EC50: 0.043 nM

B1: anti-CD5 antibody 5D7 hIgG1 (humanized version of murine antibody 5D7) (antibody, V domains shown)
VH: QVTLKESGPVLVKPTETLTLTCTFSGFSLSTSGMGVGWIRQAPGKGLEWVAHIWWDDDVYYNPSLKSRLTITKDASKDQVSLKLSSVTAADTAVYYCVRRRATGTGFDYWGQGTLVTVSS
VL: NIVMTQSPSSLSASVGDRVTITCQASQDVGTAVAWYQQKPDQSPKLLIYWTSTRHTGVPDRFTGSGSGTDFTLTISSLQPEDIATYFCHQYNSYNTFGSGTKLEIK
[2]
  Kd: 0.141 nM
  Response: 0.67 nm
  koff: 3.36e-05 s⁻¹
  kon: 239000 M⁻¹ s⁻¹
[3]
  EC50: 0.003 nM
